Experimental data published in patent US20220072032A1 (AARHUS UNIVERSITET, published 2022).

Legend:
[1] = target: Wild type human PCSK9 (proprotein convertase subtilisin-like/kexin type 9) (human, UniProt Q8NBP7 31-692, 35S metabolic label in the immunoprecipitations); test: cell-based or functional assay
[2] = target: T1, PCSK9 mutant R93R96R97R104R105H139 (all mutated to alanine) (human, UniProt Q8NBP7 31-692, 35S metabolic label); test: immunoprecipitation of 35S-labelled PCSK9 mutant R93R96R97R104R105H139 (all to alanine) by mAb, autoradiography (16 h) [CONT.) H]
T1 construct: also called mutant PCSK9; 35S-mutant PCSK9

[3] = target: T2, R93R104R105H139 (35S metabolic label); test: immunoprecipitation of 35S-labelled PCSK9 WT and alanine variants, autoradiography [CONT.) I]
T2 construct: also called 35S PCSK9 variant R93R104R105H139

[4] = target: T3, PCSK9 mutant R104R105 (alanine substitutions) (human, UniProt Q8NBP7 31-692, 35S metabolic label); test: as above
T3 construct: also called variant R104R105

[5] = target: T4, PCSK9 mutant R96R97 (alanine substitutions) (human, UniProt Q8NBP7 31-692, 35S metabolic label); test: as above
T4 construct: also called variant R96R97
T4 sequence (Q8NBP7 other isoform, or with tags, fused parts or gaps mutant limits assumed): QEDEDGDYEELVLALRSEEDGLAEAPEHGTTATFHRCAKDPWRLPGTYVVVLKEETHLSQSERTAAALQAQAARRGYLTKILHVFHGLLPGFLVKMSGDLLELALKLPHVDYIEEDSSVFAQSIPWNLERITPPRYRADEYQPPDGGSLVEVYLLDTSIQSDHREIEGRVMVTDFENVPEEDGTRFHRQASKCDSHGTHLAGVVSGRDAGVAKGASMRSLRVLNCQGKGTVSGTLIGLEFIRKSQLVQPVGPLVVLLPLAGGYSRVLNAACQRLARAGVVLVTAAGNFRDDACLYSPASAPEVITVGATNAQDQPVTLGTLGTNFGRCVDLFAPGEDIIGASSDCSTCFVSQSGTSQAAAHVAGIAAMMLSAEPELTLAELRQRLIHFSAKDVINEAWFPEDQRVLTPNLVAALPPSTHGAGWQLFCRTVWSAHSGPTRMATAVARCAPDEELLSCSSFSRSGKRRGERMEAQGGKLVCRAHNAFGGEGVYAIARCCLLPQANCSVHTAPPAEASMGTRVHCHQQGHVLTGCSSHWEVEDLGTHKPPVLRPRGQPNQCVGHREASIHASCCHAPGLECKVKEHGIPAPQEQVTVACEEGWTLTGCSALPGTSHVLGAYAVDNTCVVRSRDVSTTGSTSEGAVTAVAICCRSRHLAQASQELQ

T1 sequence (Q8NBP7 other isoform, or with tags, fused parts or gaps mutant limits assumed): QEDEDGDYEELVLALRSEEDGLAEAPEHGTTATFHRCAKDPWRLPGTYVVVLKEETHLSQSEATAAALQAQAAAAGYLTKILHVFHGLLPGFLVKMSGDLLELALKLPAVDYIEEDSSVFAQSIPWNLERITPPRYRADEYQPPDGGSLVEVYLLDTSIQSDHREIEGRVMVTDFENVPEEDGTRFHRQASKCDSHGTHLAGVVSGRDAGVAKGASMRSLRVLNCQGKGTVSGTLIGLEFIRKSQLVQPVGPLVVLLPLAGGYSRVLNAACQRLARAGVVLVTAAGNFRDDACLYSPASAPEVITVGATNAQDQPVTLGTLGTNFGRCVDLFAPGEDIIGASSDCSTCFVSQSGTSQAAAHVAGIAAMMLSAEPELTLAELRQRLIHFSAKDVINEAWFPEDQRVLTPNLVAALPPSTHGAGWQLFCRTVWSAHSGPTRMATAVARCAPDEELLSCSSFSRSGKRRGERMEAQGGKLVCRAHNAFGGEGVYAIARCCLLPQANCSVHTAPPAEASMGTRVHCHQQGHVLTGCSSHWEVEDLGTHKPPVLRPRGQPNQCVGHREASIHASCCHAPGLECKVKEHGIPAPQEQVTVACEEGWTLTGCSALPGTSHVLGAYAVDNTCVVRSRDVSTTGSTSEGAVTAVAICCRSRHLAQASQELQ
Chain of Wild type human PCSK9 (proprotein convertase subtilisin-like/kexin type 9) (Q8NBP7 31-692 limits assumed): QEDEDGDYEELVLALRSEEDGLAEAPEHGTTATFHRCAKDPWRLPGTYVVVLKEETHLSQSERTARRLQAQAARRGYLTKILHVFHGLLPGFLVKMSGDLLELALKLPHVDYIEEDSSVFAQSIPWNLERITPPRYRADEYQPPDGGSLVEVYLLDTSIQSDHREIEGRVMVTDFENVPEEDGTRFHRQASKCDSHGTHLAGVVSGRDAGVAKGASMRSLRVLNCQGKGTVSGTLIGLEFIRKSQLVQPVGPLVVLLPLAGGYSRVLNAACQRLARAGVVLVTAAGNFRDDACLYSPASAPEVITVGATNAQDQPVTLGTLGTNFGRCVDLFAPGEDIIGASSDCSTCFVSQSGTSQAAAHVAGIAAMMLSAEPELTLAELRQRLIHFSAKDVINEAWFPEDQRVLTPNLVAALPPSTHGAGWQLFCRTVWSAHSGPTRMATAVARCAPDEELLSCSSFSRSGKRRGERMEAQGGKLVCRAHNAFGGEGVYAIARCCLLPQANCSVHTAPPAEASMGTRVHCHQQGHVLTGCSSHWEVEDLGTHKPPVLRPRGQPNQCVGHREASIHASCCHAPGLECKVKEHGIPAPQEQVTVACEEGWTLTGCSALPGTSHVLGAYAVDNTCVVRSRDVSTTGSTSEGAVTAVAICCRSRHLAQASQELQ
T3 sequence (Q8NBP7 other isoform, or with tags, fused parts or gaps mutant limits assumed): as the sequence (Q8NBP7 31-692 limits assumed) above, with R74A, R75A counted along it
T2 sequence (PCSK9, as listed by the source limits assumed): as the sequence (Q8NBP7 31-692 limits assumed) above, with R63A, R74A, R75A, H109A counted along it

cellular levels of LDLR in HepG2 cells (Western blot) [1] | binding result [3] | binding result [4] | binding result [5] | Binder | binding result [2]
~2 fold | no binding | no binding | no binding | mAb 5E11 (rat hybridoma BNT-5E11-D4/G1-E4) (antibody, V domains shown, Rat monoclonal antibody, used as conditioned hybridoma medium) VH: EVQLQESGPGLVKPSQSLSLTCSVTGYTITSGYDWSWIRRFPGNTMEWMGDISYSGSTNYNPSLKSRVSITRDTSKNQFFLQLNSVTTGDTATYYCAKLPGWGQGTLVTVSS VL: DVVLTQTPVFLSVTLGDQTSISCRSSQSLEYSDGYTYLEWYLQKPGQSPQLLIYEVSNRFSGVPDRFIGSGSGTDFTLKISRVEPEDLGVYYCFQGTHDPLTFGSGTKLEIK | no binding (tested: 500 µl conditioned hybridoma medium)
~2 fold |  |  |  | mAb 8H4 (rat hybridoma BNT-8H4-B8/C7-E11) (antibody, V domains shown, Rat monoclonal antibody, used as conditioned hybridoma medium) VH: QVTLKESGPGILQPSQTLSLTCSFSGFSLSSSGICVSWIRQPSGKGLEWLATICWEDSKGYNPSLKNRLTISKDTSNNQALLRITSVDTADTAIYYCARVYYWYFDFWGPGTMVTVSS VL: DIVMTQSPSLLSASVGDRVTLSCKGSQNINNYLAWYQQKLGEAPKLLIYNTNSLQTGIPSRFSGSGSGTDCTLTIRSLQPEDVATYFCYQYNNGNTFGGGTKLELK | no binding (tested: 500 µl conditioned hybridoma medium)
